From publication PMC11176775, “Impact of DNA ligase 1 and IIIα interactions with APE1 and polβ on the efficiency of base excision repair pathway at the downstream steps” (The Journal of Biological Chemistry, 2024)

Molecular target: DNA polymerase β (1–335 amino acids), as used in SEC and in the repair assays (UniProt P06746 1-335)
Test: cell-based or functional assay

B1: LIG1▵N-terminal (262–919 amino acids) (domain or fragment)
chain: DPSGYNPAKNNYHPVEDACWKPGQKVPYLAVARTFEKIEEVSARLRMVETLSNLLRSVVALSPPDLLPVLYLSLNHLGPPQQGLELGVGDGVLLKAVAQATGRQLESVRAEAAEKGDVGLVAENSRSTQRLMLPPPPLTASGVFSKFRDIARLTGSASTAKKIDIIKGLFVACRHSEARFIARSLSGRLRLGLAEQSVLAALSQAVSLTPPGQEFPPAMVDAGKGKTAEARKTWLEEQGMILKQTFCEVPDLDRIIPVLLEHGLERLPEHCKLSPGIPLKPMLAHPTRGISEVLKRFEEAAFTCEYKYDGQRAQIHALEGGEVKIFSRNQEDNTGKYPDIISRIPKIKLPSVTSFILDTEAVAWDREKKQIQPFQVLTTRKRKEVDASEIQVQVCLYAFDLIYLNGESLVREPLSRRRQLLRENFVETEGEFVFATSLDTKDIEQIAEFLEQSVKDSCEGLMVKTLDVDATYEIAKRSHNWLKLKKDYLDGVGDTLDLVVIGAYLGRGKRAGRYGGFLLASYDEDSEELQAICKLGTGFSDEELEEHHQSLKALVLPSPRPYVRIDGAVIPDHWLDPSAVWEVKCADLSLSPIYPAARGLVDSDKGISLRFPRFIRVREDKQPEQATTSAQVACLYRKQSQIQNQQGEDSGSDPEDTY
  amount of ligation products after polβ dGTP:C insertion in the coupled assay, absence against presence of the N-terminal region of LIG1, earlier time points (10-60 s): ~20 fold
